Reference: the Immune Epitope Database (IEDB)

Key:
HLA-B*15:01 = test: IEDB peptide-MHC binding, purified MHC/direct/fluorescence; filed as Kd, often an IC50 or EC50 that approximates it; ≥ and ≤ were set here for values at or beyond the usual limits of such assays; settings: source organism: SARS-CoV1
HLA-A*11:01 = test: as above; settings: source organism: SARS-CoV1
HLA-A*03:01 = test: as above; settings: source organism: SARS-CoV1
HLA-B*58:01 = test: as above
HLA-A*01:01 [1] = test: as above; settings: source organism: SARS-CoV1
HLA-A*23:01 = test: IEDB peptide-MHC binding, purified MHC/competitive/radioactivity; filed as Kd, often an IC50 or EC50 that approximates it; ≥ and ≤ were set here for values at or beyond the usual limits of such assays
HLA-A*24:02 = test: as above
HLA-A*30:02 = test: as above
HLA-A*29:02 = test: as above
HLA-A*26:01 = test: as above
HLA-A*01:01 [2] = test: as above
HLA-B*44:03 = test: as above
HLA-B*40:01 = test: as above
HLA-B*44:02 = test: as above
HLA-B*53:01 = test: as above
HLA-A*69:01 = test: IEDB peptide-MHC binding, purified MHC/direct/fluorescence; filed as Kd, often an IC50 or EC50 that approximates it; ≥ and ≤ were set here for values at or beyond the usual limits of such assays; settings: source organism: Homo sapiens
HLA-B*07:02 = test: as above; settings: source organism: Homo sapiens
HLA-B*27:05 = test: as above; settings: source organism: SARS-CoV1
[3] = source organism: SARS coronavirus Tor2
[4] = source organism: Dengue virus 4 Philippines/H241/1956
[5] = source organism: Dengue virus 3 Martinique/1243/1999
[6] = source organism: Mammarenavirus brazilense
[7] = source organism: Dengue virus 1 Brazil/97-11/1997
[8] = source organism: Lassa virus Josiah
[9] = source organism: Dengue virus 2 Jamaica/1409/1983
[10] = source organism: Mammarenavirus choriomeningitidis
[11] = source organism: Mammarenavirus guanaritoense
[12] = source organism: Mammarenavirus whitewaterense

LTDDMIAAY
Kd (HLA-B*15:01): 636 nM
Kd (HLA-A*11:01): 4050 nM
Kd (HLA-A*03:01): 19300 nM
Kd (HLA-B*58:01; source organism: SARS-CoV1): 6940 nM
Kd (HLA-A*01:01 [1]): 7 nM
Kd (HLA-A*23:01; [3]): ≥ 77800 nM
Kd (HLA-A*24:02; [3]): ≥ 77600 nM
Kd (HLA-A*30:02; [3]): 326 nM
Kd (HLA-A*29:02; [3]): 529 nM
Kd (HLA-A*26:01; [3]): 1800 nM

LTNDNTSRY
Kd (HLA-A*23:01; [3]): ≥ 77800 nM
Kd (HLA-A*24:02; [3]): ≥ 77600 nM
Kd (HLA-A*30:02; [3]): 8.9 nM
Kd (HLA-A*29:02; [3]): 31.6 nM
Kd (HLA-A*01:01 [2]; [3]): 1.59 nM
Kd (HLA-A*26:01; [3]): 6.48 nM

LWLLWPVTL
Kd (HLA-A*23:01; [3]): 7.42 nM
Kd (HLA-A*30:02; [3]): 5030 nM
Kd (HLA-A*29:02; [3]): 1840 nM
Kd (HLA-A*01:01 [2]; [3]): ≥ 78100 nM
Kd (HLA-A*26:01; [3]): ≥ 77900 nM

MEFIDGISL
Kd (HLA-B*44:03; [4]): 52.9 nM
Kd (HLA-B*40:01; [4]): 0.18 nM
Kd (HLA-B*44:02; [4]): 182 nM

METLLLLGL
Kd (HLA-B*44:03; [5]): 33.2 nM
Kd (HLA-B*40:01; [5]): 81.3 nM
Kd (HLA-B*44:02; [5]): 8.98 nM

MFKTKGRYNL
Kd (HLA-A*23:01; [6]): 2070 nM
Kd (HLA-A*24:02; [6]): 7170 nM
Kd (HLA-A*29:02; [6]): 68.9 nM

MTTEDMLSVW
Kd (HLA-B*53:01; [7]): 856 nM
Kd (HLA-A*26:01; [7]): 2090 nM

MYIFFASFYY
Kd (HLA-A*23:01; [3]): 722 nM
Kd (HLA-A*24:02; [3]): 6650 nM
Kd (HLA-A*30:02; [3]): 9.07 nM
Kd (HLA-A*29:02; [3]): 0.449 nM
Kd (HLA-A*01:01 [2]; [3]): 6700 nM
Kd (HLA-A*26:01; [3]): 575 nM

NELPESLETL
Kd (HLA-B*40:01; [4]): 246 nM

QETWNRQDL
Kd (HLA-B*40:01; [7]): 72.8 nM

RMVMTTTANW
Kd (HLA-B*53:01; [4]): 20.5 nM
Kd (HLA-A*23:01; [4]): 52.8 nM

RPAKSMDSL
Kd (HLA-A*69:01): 5060 nM
Kd (HLA-B*58:01; source organism: Homo sapiens): 18800 nM
Kd (HLA-B*07:02): 146 nM

RVDFCGKGY
Kd (HLA-B*15:01): 1090 nM
Kd (HLA-B*27:05): 3890 nM
Kd (HLA-A*11:01): 7730 nM
Kd (HLA-A*03:01): 1890 nM
Kd (HLA-A*01:01 [1]): 1000 nM
Kd (HLA-A*23:01; [3]): ≥ 77800 nM
Kd (HLA-A*24:02; [3]): ≥ 77600 nM
Kd (HLA-A*30:02; [3]): 20 nM
Kd (HLA-A*29:02; [3]): 9230 nM
Kd (HLA-A*26:01; [3]): 7680 nM

RYNLPTMCDI
Kd (HLA-A*23:01; [3]): 180 nM
Kd (HLA-A*24:02; [3]): 601 nM
Kd (HLA-A*30:02; [3]): 90 nM
Kd (HLA-A*29:02; [3]): 5260 nM
Kd (HLA-A*01:01 [2]; [3]): ≥ 70400 nM
Kd (HLA-A*26:01; [3]): ≥ 69700 nM

RYNTRGNTY
Kd (HLA-A*23:01; [3]): 8930 nM
Kd (HLA-A*24:02; [3]): 1790 nM
Kd (HLA-A*30:02; [3]): 31.3 nM
Kd (HLA-A*29:02; [3]): 1770 nM
Kd (HLA-A*01:01 [2]; [3]): 13900 nM
Kd (HLA-A*26:01; [3]): ≥ 52200 nM

SDAHKKNLY
Kd (HLA-A*23:01; [8]): ≥ 77700 nM
Kd (HLA-A*24:02; [8]): ≥ 77500 nM
Kd (HLA-A*30:02; [8]): 1640 nM
Kd (HLA-A*29:02; [8]): ≥ 69700 nM
Kd (HLA-A*01:01 [2]; [8]): 1120 nM
Kd (HLA-A*26:01; [8]): ≥ 77900 nM

SLEKAANVQW
Kd (HLA-B*44:02; [4]): 10700 nM

TENILTVLL
Kd (HLA-B*44:03; [5]): 351 nM
Kd (HLA-B*40:01; [5]): 12.2 nM
Kd (HLA-B*44:02; [5]): 0.409 nM

TPELEEEMF
Kd (HLA-B*53:01; [5]): 1970 nM

VEMGEAAGI
Kd (HLA-B*44:03; [9]): 206 nM
Kd (HLA-B*40:01; [9]): 268 nM
Kd (HLA-B*44:02; [9]): 26.5 nM

VFQSATKII
Kd (HLA-A*23:01; [3]): 0.162 nM
Kd (HLA-A*24:02; [3]): 0.211 nM
Kd (HLA-A*30:02; [3]): 199 nM
Kd (HLA-A*29:02; [3]): 0.0425 nM
Kd (HLA-A*01:01 [2]; [3]): ≥ 59200 nM
Kd (HLA-A*26:01; [3]): ≥ 43600 nM

VKMPTHRHI
Kd (HLA-A*23:01; [10]): ≥ 77700 nM
Kd (HLA-A*24:02; [10]): ≥ 77500 nM
Kd (HLA-A*30:02; [10]): ≥ 76900 nM
Kd (HLA-A*29:02; [10]): ≥ 78900 nM
Kd (HLA-A*01:01 [2]; [10]): ≥ 78100 nM
Kd (HLA-A*26:01; [10]): ≥ 77900 nM

VWKSGILQLF
Kd (HLA-A*23:01; [11]): 16.5 nM
Kd (HLA-A*24:02; [11]): 62.6 nM
Kd (HLA-A*29:02; [11]): 2560 nM

WCSQTDYQY
Kd (HLA-A*23:01; [10]): ≥ 77700 nM
Kd (HLA-A*24:02; [10]): ≥ 77500 nM
Kd (HLA-A*30:02; [10]): 342 nM
Kd (HLA-A*29:02; [10]): 258 nM
Kd (HLA-A*01:01 [2]; [10]): 1160 nM
Kd (HLA-A*26:01; [10]): ≥ 77900 nM

WCSQTDYQYL
Kd (HLA-A*23:01; [10]): 10800 nM
Kd (HLA-A*24:02; [10]): 15000 nM
Kd (HLA-A*30:02; [10]): 10600 nM
Kd (HLA-A*29:02; [10]): 9280 nM
Kd (HLA-A*01:01 [2]; [10]): 13100 nM
Kd (HLA-A*26:01; [10]): ≥ 69700 nM

YQPESQKFI
Kd (HLA-A*23:01; [12]): 7210 nM
Kd (HLA-A*24:02; [12]): 8480 nM
Kd (HLA-A*29:02; [12]): 3390 nM
